Data as given in patent US20240124597A1 (Bristol-Myers Squibb, published 2024).

T1: hCD32a-H131 (human, UniProt P12318 34-217, limits assumed)
T1 construct: His-tagged; H131 allotype; also called FcγRIIa-H131
T1 sequence (looked up): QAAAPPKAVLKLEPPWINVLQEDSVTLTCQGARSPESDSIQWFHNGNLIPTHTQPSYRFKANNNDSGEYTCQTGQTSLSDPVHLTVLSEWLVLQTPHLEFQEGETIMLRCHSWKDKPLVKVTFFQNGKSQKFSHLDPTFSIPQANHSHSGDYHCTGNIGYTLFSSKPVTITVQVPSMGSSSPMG

T2: hCD32a-R131 (human, UniProt P12318 34-217, limits assumed)
T2 construct: His-tagged; R131 allotype; also called FcγRIIa-R131
T2 sequence (looked up): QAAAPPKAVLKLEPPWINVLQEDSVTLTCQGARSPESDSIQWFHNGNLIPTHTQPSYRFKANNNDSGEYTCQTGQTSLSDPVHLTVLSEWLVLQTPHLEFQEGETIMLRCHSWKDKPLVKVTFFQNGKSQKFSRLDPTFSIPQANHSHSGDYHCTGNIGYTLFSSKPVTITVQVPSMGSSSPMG

T3: hCD32b (human, UniProt P31994 43-217, limits assumed)
T3 construct: His-tagged; also called FcγRIIb
T3 sequence (looked up): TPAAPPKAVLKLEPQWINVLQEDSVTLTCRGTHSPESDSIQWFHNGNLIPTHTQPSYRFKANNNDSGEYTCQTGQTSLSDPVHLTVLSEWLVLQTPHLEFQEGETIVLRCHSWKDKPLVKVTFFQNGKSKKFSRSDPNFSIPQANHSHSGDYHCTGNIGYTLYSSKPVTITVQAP


Assays:
[1] = target: T4, human-CD40-monomer protein (human, UniProt P25942 21-193, limits assumed); test: SPR, Ab captured on protein A, hCD40 monomer 500 and 50 nM, 1:1 fit; supernatant; sup (supernatant); Vh-hz2 / Vk-hz2
T4 construct: Soluble monomer generated in house, used as SPR analyte; also called hCD40; hCD40-monomer
Procedure: (§1) Titer analysis was performed using Biolayer Interferometry (BLI) on an Octet RED instrument (Fortebio) by capturing antibodies from supernatant using protein A sensor tips and measuring capture response with respect to a standard curve obtained using a control antibody sample. SPR data were obtained by capturing antibodies on a protein A surface and testing the binding of 500 nM and 50 nM injections of human-CD40 analyte, using a BIAcore™ T200 instrument (GE Healthcare). The kinetic data for the two concentrations of hCD40-monomer were fit to a 1:1 Langmuir model, to yield estimates of the kinetic and affinity values for these interactions, and for comparison of the different molecules.

[2] = target: T4, human-CD40-monomer protein; test: SPR, Ab captured on protein A, hCD40 monomer 500 and 50 nM, 1:1 fit; supernatant
Procedure: as §1

[3] = target: T5, human CD40 on cells (tonsillar B cells, immature dendritic cells, Ramos-Blue cells) (human, UniProt P25942 21-277); test: cell-based or functional assay
hCD16a-V158 = target: T6, hCD16a-V158 (human, UniProt P08637 17-208); test: SPR, antibody captured on protein A, His-tagged FcγR as analyte; 1:1 steady state fit
T6 construct: His-tagged; V158 allotype; also called FcγRIIIa-V158
Procedure: (§2) FcγR binding SPR: FcγR binding can be measured in vitro using purified FcγRs using methods, such as BIAcore™ surface plasmon resonance (SPR). One method tests the binding of purified His-tagged FcγR proteins (FcγR-his) to antibodies that are captured on a sensor surface containing protein A which has been immobilized using standard ethyl(dimethylaminopropyl) carbodiimide (EDC)/N-hydroxysuccinimide (NHS) chemistry with ethanolamine blocking. These experiments are performed on a BIAcore™ T200 instrument (GE Healthcare, Marlborough, MA) at 25° C. For example, samples of purified antibody at 3 μg/ml concentration are first captured on the immobilized protein A surface using a 15 second (s) contact time at 10 μl/min flow rate. This is followed by the binding of purified FcγR-His proteins at various concentrations, such as 10 μM-1.5 nM (2:1 dilution series) or 10 μM-13.7 nM (2:1 dilution series), using 120 s association and dissociation times at a flow rate of 30 μ/min. All steps are performed in a running buffer consisting of 10 mM NaPO₄, 130 mM NaCl, 0.05% p20 (PBS-T) pH 7.1. FcγR proteins tested in these studies include the “high affinity” FcγR CD64 (hFcγRI), as well as the “low affinity” FcγRs CD32a-H131 (FcγRIIa-H131), CD32a-R131 (FcγRIIa-R131), CD32b (FcγRIIb), CD16a-V158 (FcγRIIIa-V158), and CD16a-F158 (FcγRIIIa-F158), which were expressed and purified in house. SPR data are fit to either a 1:1 Langmuir model, or a 1:1 steady state model using BIAcore™ T200 evaluation software to obtain values for the association rate constant (ka), dissociation rate constant (kd) and dissociation constant (KD).

hCD32a-H131 = target: T1, hCD32a-H131; test: as above
Procedure: as §2

hCD32a-R131 = target: T2, hCD32a-R131; test: as above
Procedure: as §2

hCD32b = target: T3, hCD32b; test: as above
Procedure: as §2

hCD16a-F158 = target: T7, hCD16a-F158 (human, UniProt P08637 17-208); test: as above
T7 construct: His-tagged; F158 allotype; also called FcγRIIIa-F158
Procedure: as §2

[4] = target: T5, human CD40 on cells (tonsillar B cells, …); test: cell-based or functional assay; remark: listed apart in the source
hCD64 [5] = target: T8, hCD64 (human, UniProt P12314 16-288, limits assumed); test: SPR, Ab captured on protein A, hCD64-His 10 µM-1.5 nM as analyte
T8 construct: His-tagged; also called hFcγRI
Procedure: (§3) FcγR binding SPR: FcγR binding can be measured in vitro using purified FcγRs using methods, such as BIAcore™ surface plasmon resonance (SPR). One method tests the binding of purified His-tagged FcγR proteins (FcγR-his) to antibodies that are captured on a sensor surface containing protein A which has been immobilized using standard ethyl(dimethylaminopropyl) carbodiimide (EDC)/N-hydroxysuccinimide (NHS) chemistry with ethanolamine blocking. These experiments are performed on a BIAcore™ T200 instrument (GE Healthcare, Marlborough, MA) at 25° C. For example, samples of purified antibody at 3 μg/ml concentration are first captured on the immobilized protein A surface using a 15 second (s) contact time at 10 μl/min flow rate. This is followed by the binding of purified FcγR-His proteins at various concentrations, such as 10 μM-1.5 nM (2:1 dilution series) or 10 μM-13.7 nM (2:1 dilution series), using 120 s association and dissociation times at a flow rate of 30 μ/min. All steps are performed in a running buffer consisting of 10 mM NaPO₄, 130 mM NaCl, 0.05% p20 (PBS-T) pH 7.1. FcγR proteins tested in these studies include the “high affinity” FcγR CD64 (hFcγRI), as well as the “low affinity” FcγRs CD32a-H131 (FcγRIIa-H131), CD32a-R131 (FcγRIIa-R131), CD32b (FcγRIIb), CD16a-V158 (FcγRIIIa-V158), and CD16a-F158 (FcγRIIIa-F158), which were expressed and purified in house. […]

hCD64 [6] = target: T8, hCD64; test: SPR, antibody captured on protein A, His-tagged FcγR as analyte; 1:1 Langmuir fit
Procedure: as §3

[7] = target: T4, human-CD40-monomer protein; test: SPR, purified Ab captured on protein A, hCD40 monomer 500-3.9 nM, 37 C, 1:1 Langmuir fit
Procedure: (§4) Based on the sequences, titer, and SPR binding data, antibodies were selected for larger scale expression, purification, and further characterization. SPR analysis using purified antibodies was performed by capturing antibodies on a protein A surface, with binding of a 500-3.9 nM (2:1) dilution series of human-CD40 monomer, at either 25° C. or 37° C. in PBS-T pH 7.1 buffer; the titration data was fit to a 1:1 Langmuir model.
(§5) SPR data are fit to a 1:1 Langmuir model using BIAcore™ T200 evaluation software to obtain values for the association rate constant (ka), dissociation rate constant (kd) and dissociation constant (KD).

hCD64 [8] = target: T8, hCD64; test: SPR, antibody captured on protein A, His-tagged hCD64 as analyte; %Rmax against hCD64 concentration
Procedure: as §3

[9] = target: T4, human-CD40-monomer protein; test: SPR, purified Ab captured on protein A, hCD40 monomer 500-3.9 nM, 25 C, 1:1 Langmuir fit
Procedure: as §4, §5

T8 sequence (P12314 16-288 limits assumed): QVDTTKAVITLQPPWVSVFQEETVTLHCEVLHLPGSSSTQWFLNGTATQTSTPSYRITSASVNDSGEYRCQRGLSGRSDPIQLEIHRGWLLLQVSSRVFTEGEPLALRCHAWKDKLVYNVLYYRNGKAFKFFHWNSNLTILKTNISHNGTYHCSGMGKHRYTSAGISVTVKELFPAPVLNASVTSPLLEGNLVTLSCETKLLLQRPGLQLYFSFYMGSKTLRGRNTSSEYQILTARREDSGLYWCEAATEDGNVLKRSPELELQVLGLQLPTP
T4 sequence (P25942 21-193 limits assumed): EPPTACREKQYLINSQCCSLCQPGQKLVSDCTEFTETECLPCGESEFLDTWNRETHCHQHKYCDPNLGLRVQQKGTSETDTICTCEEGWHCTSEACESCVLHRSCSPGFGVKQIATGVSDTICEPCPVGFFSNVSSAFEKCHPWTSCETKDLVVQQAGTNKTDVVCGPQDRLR
T5 sequence (P25942 21-277 limits assumed): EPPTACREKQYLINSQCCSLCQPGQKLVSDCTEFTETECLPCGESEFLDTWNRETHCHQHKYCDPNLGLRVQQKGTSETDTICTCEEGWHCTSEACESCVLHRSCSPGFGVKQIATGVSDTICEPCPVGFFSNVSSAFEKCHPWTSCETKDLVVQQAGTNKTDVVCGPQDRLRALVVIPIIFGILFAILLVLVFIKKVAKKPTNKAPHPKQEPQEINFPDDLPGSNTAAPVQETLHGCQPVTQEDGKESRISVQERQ
T7 sequence (P08637 17-208 limits assumed): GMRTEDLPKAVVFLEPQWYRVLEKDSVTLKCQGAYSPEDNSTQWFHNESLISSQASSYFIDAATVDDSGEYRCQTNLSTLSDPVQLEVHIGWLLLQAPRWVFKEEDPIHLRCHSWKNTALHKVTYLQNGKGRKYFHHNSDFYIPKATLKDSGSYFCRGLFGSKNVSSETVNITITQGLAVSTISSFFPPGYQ
T6 sequence (P08637 17-208 F176V limits assumed): as the sequence (P08637 17-208 limits assumed) above, with F160V counted along it

Binder | kon [1] [M⁻¹ s⁻¹] | Kd [2] [nM] | koff [2] [s⁻¹] | Potency for inhibition of CD40L expressing CHO cells stimulation of B cell proliferation (IC50 ng/ml) [3] [ng/mL] | Kd (hCD16a-V158) [µM] | Kd (hCD32a-H131) [µM] | Kd (hCD32a-R131) [µM] | Kd (hCD32b) [µM] | Kd (hCD16a-F158) [µM] | Inhibition of B cell proliferation induced by soluble CD40L trimer, Average (IC50 ng/ml) [4] [ng/mL] | fold weaker binding compared to wild type (control-IgG1) (hCD64 [5]) [fold] | Kd (hCD64 [6]) [nM] | Kd [7] [nM] | koff [7] [s⁻¹] | kon [7] [M⁻¹ s⁻¹] | EC50 (read off the curve) (hCD64 [8]) [nM] | Kd [9] [nM] | koff [9] [s⁻¹] | kon [9] [M⁻¹ s⁻¹] | kon [2] [M⁻¹ s⁻¹]
Y12XX-hz16 (antibody, human IgG1, kappa, V domains shown, Humanized, IgG1-P238K; supernatant sample) VH: QVQLVQSGAEVKKPGSSVKVSCKASGYAFTSYWMHWVRQRPGQGLEWMGFINPTTGYSEYNQKFKDRVTITADKSTSTAYMELSSLRSEDTAVYYCARWGLPPFAYWGQGTLVTVSS VL: DIQMTQSPSFLSASVGDRVTITCKASQDVSTAVAWYQQKPGKAPKLLIYSASYRYTGVPSRFSGSGSGTDFTLTISSLQPEDFATYYCQQHYSTPWTFGGGTKVEIKR | 200000 | 3.2 | 0.00064 | – | – | – | – | – | – | – | – | – | – | – | – | – | – | – | – | –
Y12XX-hz28-P238K (antibody, human IgG1, kappa, also called Y12XX-hz28-IgG1-P238K; Y12XX-hx28-IgG1-P238K) heavy: not shown light: DIQMTQSPSFLSASVGDRVTITCKASQDVSTAVAWYQQKPGKAPKLLIYSASYRYTGVPSRFSGSGSGTDFTLTISSLQPEDFATYYCQQHYSTPWTFGGGTKVEIKRTVAAPSVFIFPPSDEQLKSGTASVVCLLNNFYPREAKVQWKVDNALQSGNSQESVTEQDSKDSTYSLSSTLTLSKADYEKHKVYACEVTHQGLSSPVTKSFNRGEC | – | 3.5 | 0.00062 | 38.1 | > 50 | > 50 | > 50 | > 50 | > 50 | 6.7 | 125 | 25 | 8.5 | 0.0037 | 440000 | ~30 | 3.1 | 0.00069 | 220000 | 180000
